Results on three molecules are retold here after patent US8399206B2, “Methods for diagnosis, prognosis and methods of treatment” (Nodality, Inc., priority 2008, dated 2013).

Where a SMILES comes first, the peptide text is derived from it. The star is where a group is joined. Cbz = O=C(OCc1ccccc1)*; CH2F = FC*

Holding throughout (format): cell-based, human
The test system of assay [1] is AML blasts. The assay can be described thus: Functional apoptosis and DNA damage response assay, AML study No. 1 (c-PARP, cleaved caspases, p-Chk2). How it is done:
Multi-parameter flow cytometric analysis was performed on peripheral blasts taken at diagnosis from 9 AML patients who achieved a complete response (CR) and 24 patients who were non-responders (NR) to one cycle of standard 7+3 induction therapy (100-200 mg/m2 cytarabine and 60 mg/m2 daunorubicin). The signaling nodes were organized into 4 biological categories: 1) Protein expression of receptors and drug transporters 2) Response to cytokines and growth factors, 3) Phosphatase activity, and 4) Apoptotic signaling pathways.
A viable cell will be Aqua negative and PARP negative and a measure of cell death is PARP and/or Aqua positivity. “Apoptosis”=% of PARP^−Aqua^−unstim−% of PARP^−Aqua^−Drug.
(§1) Functional assays were performed as previously described. Cells were incubated with modulators (Table 18), at 37° C. for 3-15 minutes, fixed with 1.6% paraformaldehyde (final concentration) for 10 minutes at 37° C., pelleted and permeabilized with 100% ice-cold methanol and stored at −80° C.
The median fluorescence intensity (MFI) was computed for each node from the fluorescence intensity levels for the cells in the myeloid population. The MFI values were then used to compute a variety of metrics by comparing them to baseline or background values, including the unmodulated condition, cellular autofluorescence and antibody isotype controls. The following metrics were computed: • 1. Basal MFI (“Basal”)=log2(MFIUnmodulated Stained)−log2(MFIGated Unstained (Autofluoresence)), designed to measure the basal levels of a certain protein under unmodulated conditions. • 2. Fold Change MFI (“Fold”)=log2(MFIModulated Stained)−log2(MFIUnmodulated Stained), a measure of the change in the activation state of a protein under modulated conditions. • 3. Total Phospho MFI (“TotalPhospho”)=log2(MFIModulated Stained)−log2(MFIGated Unstained (Autofluorescence)), a measure of the total levels of a protein under modulated conditions. • 4. Relative Protein Expression (“Rel. Expression”)=log2(MFIstain)−log2(MFIControl), a measure of the levels of surface marker staining relative to control antibody staining. • 5. […] An additional metric was designed to measure the levels of cellular apoptosis in response to cytotoxic drugs: Quadrant (“Quad”)=a measure of the percentage of cells in a flow cytometry quadrant region defined by p-Chk2 and c-PARP i.e. the % of cells that are both p-Chk2- and c-PARP+.

For another assay, the system named is AML BMMC leukemic blasts. Description: SCNP modulated signaling assay, AML study No. 2 (BMMC, CR vs NR, clinical sub-groups). As to conditions: Study No. 2, all patients. How it is done: Two independent sets of cryopreserved samples were analyzed sequentially. The first set consisted of 35 peripheral blood mononuclear cell (PBMC) samples derived from AML patients. The second set consisted of 134 cryopreserved bone marrow mononuclear cell (BMMC) samples derived from AML patients. These samples were the same samples used in the previous examples. Sample inclusion criteria required collection prior to initiation of induction chemotherapy, AML classification by the French-American-British (FAB) criteria as M0 through M7 (excluding M3) and availability of clinical annotations.
In the first study, induction chemotherapy consisted of at least one cycle of standard cytarabine-based induction therapy (i.e. daunorubicin 60 mg/m^2×3 days, cytarabine 100-200 mg/m^2 continuous infusion×7 days); responses were measured after one cycle of induction therapy. In the second study, cytarabine (200 mg/m^2 to 3 g/m^2) was used in combination with an anthracycline (daunorubicin or idarubicin) or an additional anti-metabolite (e.g. fludarabine or troxacitabine), and sometimes, an experimental agent (Table 16). […] Standard clinical and laboratory criteria were used for defining complete response (CR) in both studies. […] Classified as “CRp,” these samples were included in the CR group for all primary analysis. The univariate analyses were also repeated with the CRp patients classified into the NR sample group for sensitivity analysis.
Cyropreserved samples were thawed at […], washed and centrifuged in PBS, 10% FBS and 2 mM EDTA. The cells were re-suspended, filtered to remove debris and washed in RPMI cell culture media, 1% FBS, then stained with Live/Dead Fixable Aqua Viability Dye to distinguish non-viable cells. The cells were then re-suspended in RPMI, 1% FBS, aliquoted to 100,000 cells/condition and rested for 1-2 hours at 37° C. prior to SCNP assays. Each condition included two to five phenotypic markers for cell population gating (eg, CD45, CD33), up to three intracellular stains or up to three additional surface markers or control antibodies for an eight-color flow cytometry assay.
as §1
Data was acquired using FACS DIVA software on both LSR II and CANTO II Flow Cytometers (BD). For all analyses, dead cells and debris were excluded by forward scatter (FSC), side scatter (SSC), and Amine Aqua Viability Dye measurement. Leukemic cells were identified as cells that lacked the characteristics of mature lymphocytes (CD45^++, CD33^−) and that fit the CD45 and CD33 versus right-angle light-scatter characteristics consistent with myeloid leukemia cells.
The median fluorescence intensity (MFI) was computed for each node from the fluorescence intensity levels for the cells in the myeloid population. The MFI values were then used to compute a variety of metrics by comparing them to baseline or background values, including the unmodulated condition, cellular autofluorescence and antibody isotype controls. The following metrics were computed: • 1. Basal MFI (“Basal”)=log2(MFIUnmodulated Stained)−log2(MFIGated Unstained (Autofluoresence)), designed to measure the basal levels of a certain protein under unmodulated conditions. • 2.

Assay [2] relates to AML blasts. Description: SCNP / phospho-flow modulated signaling assay, AML study No. 1 (PBMC at diagnosis, CR vs NR). As to conditions: Study No. 1 sensitivity analysis. An excerpt: The present illustrative example represents how to analyze cells in one embodiment of the present invention. There are several steps in the process, such as the stimulation step, the staining step and the flow cytometry step. The stimulation step of the phospho-flow procedure can start with vials of frozen cells and end with cells fixed and permeabilized in methanol. Then the cells can be stained with an antibody directed to a particular protein of interest and then analyzed using a flow cytometer.
Frozen cells are thawed in a 37° C. water bath and gently resuspended in the vial and transferred to the 15 mL conical tube. The 15 mL tube is centrifuged at 930 RPM (200×g) for 8 minutes at room temperature. The supernatant is aspirated and the pellet is gently resuspended in 1 mL media A. The cell suspension is filtered through a 70 um cell strainer into a new 15 mL tube. The cell strainer is rinsed with 1 mL media A and another 12 ml of media A into the 15 mL tube. The cells are mixed into an even suspension. A 20 μL aliquot is immediately removed into a 96-well plate containing 180 μL PBS+4% FBS+CD45 Alexa 700+PI to determine cell count and viability post spin. After the determination, the 15 mL tubes are centrifuged at 930 RPM (200×g) for 8 minutes at room temperature. The supernatant is aspirated and the cell pellet is gently resuspended in 4 mL PBS+4 μL Amine Aqua and incubated for 15 min in a 37° C. incubator. 10 mL RPMI+1% FBS is added to the cell suspension and the tube is inverted to mix the cells. The 15 mL tubes are centrifuged at 930 RPM (200×g) for 8 minutes at room temperature. The cells are resuspended in Media A at the desired cell concentration (1.25×10^6/mL). For samples with low numbers of cells (<18.5×10^6), the cells are resuspended in up to 15 mL media. For samples with high numbers of cells (>18.5×10^6), the volume is raised to 10 mL with media A and the desired volume is transferred to a new 15 mL tube, and the cell concentration is adjusted to 1.25×10^6 cells/ml. 1.6 mL of the above cell suspension (concentration at 1.25×10^6 cells/ml) is transferred into wells of a multi-well plate. From this plate, 80 ul is dispensed into each well of a subsequent plate. The plates are covered with a lid (Nunc) and placed in a 37° C. incubator for 2 hours to rest.
A concentration for each stimulant that is five folds more (5×) than the final concentration is prepared using Media A as diluent. 5× stimuli are arrayed into wells of a standard 96 well v-bottom plate that correspond to the wells on the plate with cells to be stimulated.
Adding the stimulant: The cell plate(s) are taken out of the incubator and placed in a 37° C. water bath next to the pipette apparatus. The cell plate is taken from the water bath and gently swirled to resuspend any settled cells. With pipettor, the stimulant is dispensed into the cell plate and vortexed at “7” for 5 seconds. The deep well plate is put back into the water bath.
Adding Fixative: 200 μl of the fixative solution (final concentration at 1.6%) is dispensed into wells and then mixed on the titer plate shaker on high for 5 seconds. The plate is covered with foil sealer and incubated in a 37° C. water bath for 10 minutes. The plate is spun for 6 minutes at 2000 rpm at room temperature. The cells are aspirated using a 96 well plate aspirator (VP Scientific). The plate is vortexed to resuspend cell pellets in the residual volume. The pellet is ensured to be dispersed before the Methanol step (see cell permeabilization) or clumping will occur.
Cell Permeabilization: Permeability agent, for example methanol, is added slowly and while the plate is vortexing. To do this, the cell plate is placed on titer plate shaker and made sure it is secure. The plate is set to shake using the highest setting. A pipetter is used to add 0.6 mls of 100% methanol to the plate wells. The plate(s) are put on ice until this step has been completed for all plates.

In the case of `COC(=O)CC(NC(=O)C(C)NC(=O)C(NC(=O)OCc1ccccc1)C(C)C)C(=O)CF` (stereo not drawn) [Z-VAD, benzyloxycarbonyl-Val-Ala-Asp (OMe) fluoromethylketone] (Cbz-Val-Ala-Asp(OMe)-CH2F; configuration not given here), the “cleavage of caspase 3 and PARP on co-incubation with Z-VAD” value with AML blasts [1] (samples 0341, 0521) is “inhibited cleavage of caspase 3 and PARP to near completion”. Also, the “PARP cleavage on co-incubation with Z-VAD” value in the assay with AML blasts [1] (samples 8303, 8402) is on record as “only partially inhibited”.
Take `CN[C@@H]1C[C@H]2O[C@@](C)([C@@H]1OC)n1c3ccccc3c3c4c(c5c6ccccc6n2c5c31)C(=O)NC4` [Staurosporine]: in the assay on AML blasts [1], the “cell death as determined by cleaved PARP and cleaved Caspase 8” value is on record as “failed to undergo cell death”; the “cleaved PARP and caspase 8” value was “significant populations of cells with cleaved PARP and caspase 8”; the “in vitro apoptotic response in the context of FLT3 mutations” value is given as “greatest apoptotic responses were those that expressed FLT3 ITD”; the “phosphorylated Chk2” value is on record as “increase in phosphorylated Chk2”.

B1: IFNg: interferon gamma, cytokine modulator (protein, UniProt P01579 24-161, looked up)
Interferon gamma: QDPYVKEAENLKKYFNAGHSDVADNGTLFLGILKNWKEESDRKIMQSQIVSFYFKLFKNFKDDQSIQKSVETIKEDMNVKFFNSNKKKRDDFEKLTNYSVTDLNVQRKAIHELIQVMAELSPAAKTGKRKRSQMLFRG
Regarding B1, the “Mean Value of CRs, p-Stat3 Fold” value in the assay on AML BMMC leukemic blasts (CR samples, negative = down regulation) is given as −0.02. In the assay with AML BMMC leukemic blasts (NR samples), the “Mean Value of NRs, p-Stat3 Fold” value is 0.2. For the same molecule, in the assay on AML blasts [2] (CR samples), the “Mean Value of CRs, p-Stat1 Fold” value was 0.45; the “Mean Value of CRs, p-Stat1 Total Phospho” value was determined as 0.67; the “Mean Value of CRs, p-Stat3 Total Phospho” value is on record as 0.68; the “Mean Value of CRs, p-Stat5 Total Phospho” value came out at 1.62. In the assay with AML blasts [2] (NR samples incl. CRp), the “Mean Value of NRs, p-Stat1 Total Phospho” value is 1.27; the “Mean Value of NRs, p-Stat3 Total Phospho” value worked out at 1.3; the “Mean Value of NRs, p-Stat5 Total Phospho” value is 2.35. Besides, the “Mean Value of NRs, p-Stat1 Fold” value in the assay on AML blasts [2] (NR samples incl. CRp, negative = down regulation) was determined as 0.91.
